Data on two molecules can be found in paper PMC6703420, “How Thermophilic Gram-Positive Organisms Perform Extracellular Electron Transfer: Characterization of the Cell Surface Terminal Reductase OcwA” (mBio, 2019).

The target of data set [1] is T1, OcwA (Outer cell wall protein A), TherJR_2595 (Thermincola carboxydiphila, UniProt D5XBK3).
T1 construct: native signal peptide replaced by that of S. oneidensis MR-1 stc, cleaved (N-terminus EKPAD); E. coli JM109(DE3), HisTrap purified; ~62 kDa; nine c-type hemes; monomer/dimer mixture; precursor 525 residues
Briefly: […] NMR titration. The following applies: 100 μM FMN, 20 mM phosphate pH 7.6, 100 mM KCl, 25°C; slow exchange. Format: binding.

Substrate in the data set “purified protein”: O=NO
The experiment in a line: purified protein. In kind it is biochemical, Thermincola carboxydiphila. The following applies: up to 1 mM reduced methyl viologen, 50 mM potassium phosphate pH 7.0, 55°C, anaerobic.

The term Km denotes the substrate concentration at which the rate is half of its maximum. A word on the kcat: it is the maximal rate divided by the concentration of active sites.

As to `Cc1cc2nc3c(=O)[nH]c(=O)nc-3n(C[C@H](O)[C@H](O)[C@H](O)COP(=O)(O)O)c2cc1C` [FMN, flavin mononucleotide], the “31P NMR titration” value in data set [1] was “These spectral changes arise from binding of FMN to OcwA in a slow exchange regime”.

B1: OcwA (Outer cell wall protein A), TherJR_2595 (Thermincola carboxydiphila JR) (protein)
chain: EKPADSGPAVAQNTEYVGDEACKTCHSDVHSAWSETSHGNFIKDVTKDPKALPGNFEGNYPKMLNFKAEDIQYVLLGKPGALKVQELVGKKGTFGVPADDYPVMWASWDAGKGEWEIEVEAIGEGTPWLSTCAGCHVTGLTVPTDKNPKAAKAFAGFGITCEQCHGPGAKHIKNPQGEKMVISYDAENCGQCHSRGDSVAKTPDGKPFGYPYNDEGQYVPGKKLADYYTVVSVEGDKEGKLFWPTKHAKNSHHLQYPEWLMTGHATALETLKGNGHAQDRCLKCHSAEAYLAKEGTTVTMNDAKLGVTCQVCHASHDPAATKEAFLRKPKTEICTQCHNAEGGIVAGKEVHHPHKEMNEGKIGLGFPDSPSVMYKAGVTCVDCHMPKTAGPKASHLMKVVMPKDGKANGMPDSCSSCHPGASQDYLQNVIDTWQNDIKGRLAKVKAKLDAKKAAANSQAYKEALTYYSIVAADGSNGVHNYDLAVKLLTAAEQKLQ
notes: native signal peptide replaced by that of S. oneidensis MR-1 stc, cleaved (N-terminus EKPAD); E. coli JM109(DE3), HisTrap purified; ~62 kDa; nine c-type hemes; monomer/dimer mixture; precursor 525 residues
Turning to B1, in the data set “purified protein”, the Km was 65 µM and the kcat amounted to 0.017 s⁻¹.
